Test results published in the DeepSol protein solubility set.

test: soluble on expression in E. coli; label from the status in PepcDB or PDB records

Sequence	soluble on expression in E. coli
MPRPRVLLLGDPARHLDDLWSDFQQKFEVIPANLTTHDGFKQALREKRYGDFEAIIKLAVENGTESYPWNADLISHLPSSLKVFAAAGAGFDWLDLDALNERGVAFANSRGAGDTATSDLALYLILSVFRLASYSERAARTGDPETFNRVHLEIGKSAHNPRGHVLGAVGLGAIQKEIARKAVHGLGMKLVYYDVAPADAETEKALGAERVDSLEELARRSDCVSVSVPYMKLTHHLIDEAFFAAMKPGSRIVNTARGPVISQDALIAALKSGKLLSAGLDVHEFEPQVSKELIEMKHVTLTTHIGGVAIETFHEFERLTMTNIDRFLLQGKPLLTPAGKVFAPSSAA	soluble
MSLSDVAKKVGVSPITISRALRNPEIVSEDLRQTILRTVDEMGYIPNLAARALAGRHNGTVGVITPALHQHGFAGLMLGIEDRLRATEFGVQYSNTLHHADGEAGQLKSFLMQKPAGVIIAGAESYHDLLPLIEKAACPIAHITDLSQEPERLVVGLDHHAAGAEPTRFLLSRGYQRIGFIGGGTDVRSRRRREGYEAAMREAGRFDPDLAIGADAAGTTGLGRELLTRLLARVPDIDAVFAQNDELALGVLIECGVRGIRVPENFGICGFNDLEFSAFTEPSLTTVHIPRYEVGYRVADMLLRAVRSEPPGEEKVDCGFSVIPRGSTREGHHHHHH	soluble
IVVYTDREVYGAVGSQVTLHCSFWSSEWVSDDISFTWRYQPEGGRDAISIFHYAKGQPYIDEVGTFKERIQWVGDPSWKDGSIVIHNLDYSDNGTFTCDVKNPPDIVGKTSQVTLYVFEKVPTR	soluble
MAHHHHHHMIEETSFSNLKWEHDLFSIGDLHGDMDAFLKILLNEKMIDKNYNVIRENVLIVITGDVLDPSYDDINILFFIEEYNEKGKALNSKILMVLGNHEVKNMCLEFNKVKKNVEKYQNRNDMFPKNEVIYNILVNKPFVLRVNEMVFSHAGVLPFYASYGIDYINKEGKNEIENNCKLLFNKRKRKEEFCIACDYGPTLNRYFSFVNDGVFKKWMVCSTLNKSLNLLSSRRMIVGHTVQKNKKINSFCDDKLLLTDTGISKWKNGVVSYVQYFKDGTFDVRYL	not soluble
MTSGKIHNPLNRQHSELRSKNVSLSNGDPFTIALFGVDSNAQRKSENDGERSDTIMLLSINPKKQTTEIVSVPRDTQAEIVGKGTTEKINHAYAYGGPTMAVKSLEKLMNVPIDHYATVDMDGLHDMIDALGGVNVTSNDTFTTKGTNFVKGQSTHVDGDTAMAFIRSRKEEGAGGDFGRQERQQLILQAMANKMTSTSALTHFPSLINQIQKNVKTDLTLNDMNDIRKNYKNANTTVNRHQLEGQGGIQDDGLWYFIPNDDSKQSATEILNNNLQNLEHHHHHH	soluble
MGSDKIHHHHHHMKISVSKNDLENALRYLQAFLDKKDASSIASHIHLEVIKEKLFLKASDSDIGLKSYIFTQSSDKEGVGTINGKKFLDIISCLKDSNIILETKDDSLAIKQNKSSFKLPMFDADEFPEFPVIDPKVSIEVNAPFLVDAFKKIAPVIEQTSHKRELAGILMQFDQKHQTLSVVGTDTKRLSYTQLEKISIHSTEEDISCILPKRALLEILKLFYENFSFKSDGMLAVIENEMHTFFTKLIDGNYPDYQKILPKEYISSFTLGKEEFKESIKLCSSLSSTIKLTLEKNNALFESLDSEHSETAKTSVEIEKGLDIEKAFHLGVNAKFFLEALNALGTTQFVLRCNEPSSPFLIQESLDEKQSHLNAKISTLMMPITL	not soluble
MPERYTGSDGKTYLFKGWYKGNAKPSTLETTKTPSYAVTYDDNDDLHVVYEEAVMKTYTLPAREALFGYVDEQGNLINPAKFKLSATMGESDGATGEMTTFPTIDGIDMPASQLKKLAIPQKVYTRPDDGTIVTYGPQEVSVEIPKYYQTISISPTTAYTGDKTKYPVPNEVRRGIENPDNIVSSLVGTTAYNLTQKSATRYTARRSYWTWGPTKTLYSMSIYSGTAGGNYNLSTPDGTIYYYLENRRVTEHFVDESGAKITPPTGFTQGNQLVVDSENYVYTVAKALPKIYQAGEKTYIFQGWFKGKTKPATLKTTTTPSFTPTFNDEDDMTAVYQEAIPTAELTLTGAVDIIENGATMDYWEALLKNTGEAPLTTIKIKPTATWAAGIGAPNTIFVQGTGQNTKAFPVTKEQWTTGAGVSITLDQPLPAGGQLKMNLLGTAVTGNPGQVLTADVEVTGNFGSLTAKDTVRIKDLDQEITSPDGDGFISTPTFDFGKLAISGSKQQYGLKKAADYYGNGTRNPYLRLNTSQANWSLTAQLSQPKSATDSLPTTTRLLLGTAAAASFTDYNQPTETRTPLGKTSTVTLTADNTATAVVANQQFTGSDVYQLDFTFANIKLEVPANQGMAGQQYQAAVTWNLVTGP	not soluble
MTIHLISFASILHKQASLRNSHEAILSELEKYYTVKLIDYQDMDKLGSDDFKIIFIATGGVERLVIQHFERLPRPAILLADGMQNSLAAALEISTWLRGRGMKSEILHGELPSIIQRVHILYNNFRAQRSLFGKRIGVIGTPSSWLVASNVDYLLAKRRWGIEYIDIPLERVYEHFKQITDDQVGASCAAVASQALACREGTPEDLIKAMRLYRAIKRICEEEKLEALTLSCFKLIDQIDTTGCLALSLLNDDGIMAGCEGDLQSIFTLLAVKALTGKEGFMANPSTINTRTNELILAHCTIGLKQTERYIIRNHFETEKGIAIQGLLPTGDVTIVKCGGECLDEYYLSTGTLTENTNYINMCRTQVRIRMNTPADYFLKNPLGNHHIMIHGNYEEALNEFLLSNACKRTE	not soluble
MRKVLVFLKNSKKAFETFKRVERVLKDLNLSYKKFINRKELFKVLKPKDYELFLVIGGDGTFLSAARIASRFGVPLVGVNEGRFGFLTEIKKEEIKKVLPLVLEGRAKLQERLMIDVYLRSRNRLRYLGNYLNDAVISKSSIARIIRTKVFINGEEVLEVFGDGVILSTPTGSTAYALSAGGPIVYPESQNLLFVPICPHTLSNRPLVLPSKFEVKFKVVSENMEAFLTLDGQEGFHLKKGDEVIVKRSRYVCRMYSHPRKSFFGILKEKLRWG	soluble
GPGSMQKENDRMRKKKDEAREEEEISIFHCDDGSVYEGRVTRREIPVELPLGMPTPAPASTLRGQPPPEVMPQIVPIQHGKGIFKDAGGTIYDGNWIEGAMCGEGVLQFPSGATYTGGMRANEFCGTGTYNWPDGSRYEGQWENNRMHGFGVYVDAQGGRWAGKFYRGCGVGLLGEIHL	soluble
MILTITYTQPPATDLGYLLHKNPSRPQTFELNHGKAHIFYPEATSERCTVALLLDIDPIDLARGKKGSSGEGGLFDYVNDRPYVSSSFMSVAISRVFGTAMSGKCKEKPELAAIKLPLKAKIMMLPCKGGEEIIYRLFEPLGYKVDVEGYMLDEKFPEWGKSRYYTVSLEGEVRVRDLLNHIYVLIPVLDSEKHYWVGEDEIDKLFQHGEGWLVDHPEKELITGRYLIRKKRLVNQALKRLLEASDVVDDENEDDEPLKNEETEKKLNLNQQRLGTVVAVLKSVNAKKVIDLGCGEGNLLSLLLKDKSFEQITGVDVSYSVLERAKDRLKIDRLPEMQRKRISLFQSSLVYRDKRFSGYDAATVIEVIEHLDENRLQAFEKVLFEFTRPQTVIVSTPNKEYNFHYQNLFEGNLRHRDHRFEWTRKEFETWAVKVAEKYGYSVRFLQIGEIDDEFGSPTQMGVFTL	not soluble
MGSDKIHHHHHHMQLSSRPSSLVLDHHQNKFLTPWSDPADPHILFPIQPLEQLLVQLGWPDPQAWLIHWQKRGGISLKRPFWHPSTRTDWIWGLGLPLLTLVEGCLGKSDRSLLGITGLPGCGKTSLGCWLEAAAGELGWPIKVISLDDFYWPFPQLDRSMSGNPWRVPRALPGSHDLDLLASVLDTWQSTGHLKAPMFDKALRHGRGDRDGWHLSDPKVLVIEGWILGCLPCKFAEAGQFSDQLVPPLNKLEHDYRLVVQEALNGYVPIWDRLDTLWHLKAIDPSSTRIWKANQESLMQLNRGVCLDQESFEGFVRMILASIPLTCLDGIEADVVATLTPARQLMWVGQRGYQDSSSSDSCIG	not soluble
MGILFMSKVGLRGDRRSEGDEVLDPLRQALDSSMQSHNLYQHPQHLAFHVSAPVASTVQQASGLLGPLPHLSSFALQPAHSLLPPLGSHGAGFQENGAKAES	not soluble
MEALEEYTPTLLGEVAATLRGENELWLGLALISGKFNDLEPEQLAAAASALITETPRSDAWTDFKPSPVVLAALRPSNDLFGLLFCLKHPQPPLALWQAMTVADHLQRLNLWDLRRKLIKAQNQRAIAIPLWLEVDFMGLVEQWALGMEWENLCRQTSLDEGDLVRLFRRTVDLLWQIPQVPHLSPRLKRNARIAVQQMKRFPLLEHHHHHH	not soluble
MSLDAAAATLPRKSGSVDRLVRLAEADMAGVNRLITDRMQSDVAIIPALAEHLIAAGGKRLRPLMTVAAARLAGADNDHFQKLAAAVEFIHTATLLHDDVVDGSQLRRGKVAAHLIWGGAQSVLVGDFLFARAFELMVETNSMKALEILARASRVIAEGEVLQLMRSHDLNLSQAVYLEIIQAKTAELFAAASEAGAVSAGVDVAESEALRDYGLNLGLAFQLADDALDYGGATETLGKNAGDDFREGKATLPLLLAIARSGPREAEFWERAIGRREQTEADFRRARELIIGSGALDATLDLAADYADKAKAALAMFPANDWREALEELADFAVSRRAEGHHHHHH	soluble
MTTTGHVHFYIGTYTNPPSTSTSTGIARLSLNTETGELTRLDDVVVQRNPSYLTTTEHGLYTFSEMDRNEGTELAFFRGSESVSLPINGDYPCHLDIKEPLLAVANYGSGNVSVFQLDRDGKPLGLLADLYVDGCGPNLERQTSPHAHQVTFLKHSHQLVVVDLGSDSVLIYDYDAQPPDFSLSQVIHLPAGSGPRHVVFNQQESTAYVVCELSETLIVLVKHQDKWLISNQTELLEGEENQQAAAAIRLSQDETFLYVSCRAQNKISMFDVSGDTPKRRAAIHCEGVFPRDFVLSHDQKWLLVANQHSNNVVSFRRNPQTGEITPTGYDCEIGSPVCIVEQPLLEHHHHHH	not soluble
GPGSMMLQPWLRRGSGATQKYVNGEFKDVPQGDALLVCVPEAHTWFSLHKMLCDPECRRRYPYTQSKKELILRIRRFLNDTLVDQIPALASVQRALEELSFMQPPSDTEAKFKSSLTIEQVPRIMAAVEASRTHSWEDVANTFAAMLKDPRIKNEDAMRMARIFDEMFAENERPK	not soluble
MPLGLGRRKKAPPLVENEEAEPGRGGLGVGEPGPLGGGGSGGPQMGLPPPPPALRPRLVFHTQLAHGSPTGRIEGFTNVKELYGKIAEAFRLPTAEVMFCTLNTHKVDMDKLLGGQIGLEDFIFAHVKGQRKEVEVFKSEDALGLTITDNGAGYAFIKRIKEGSVIDHIHLISVGDMIEAINGQSLLGCRHYEVARLLKELPRGRTFTLKLTEPRKAFDMISQRSAGGRPGSGPQLGTGRGTLRLRSRGPATVEDLPSAFEEKAIEKVDDLLESYMGIRDTELAATMVELGKDKRNPDELAEALDERLGDFAFPDEFVFDVWGAIGDAKVGRYLEHHHHHH	not soluble
MGNVMLSKRKSGSMADDTGEHPVCFNCTLRVDQTIHVKCFECPLRICILCFQCGAESPPHRRGHNYELVKPTSNPEAMSWTHEDEFELLKAAHKFKMGNWGEIAESIGRGRKDGHNCKDYFEKHFVRGWIGQFSIKSSSWDRIKYGMYINQTLDSVLQKNCLESTERMLLIRDAVRASGESWDENDPKLAIKVQQVLEQYVQKVIDGDIETKYERPKFLTNQYETELSPDDCDPDNERDMKSKRSVKQEINTDDSDNDNSPGPSSSCRKKGPPSPKRRKTTRVMRESSSDSDDDKSQASDKDTYHGMERETEEEDPPSAFETAQEFDTEDEEEEKKPKRGTASSSKRRKRRRMWVSKKDRRLHEFRKKMNQEVKELRSAYPRLLHESGVSKSETRPKMRRSDELKILGYNNEREELECEWFNEAEQLISRLTISATEPQKDQRLDMENDIKFARLRHYVRLLGIRKAKRNTVLEHDKINEFMKFYQEACYAAAKRPVSQQEIMDSRTEKEKLLAMTQQFLTRDEYRSLRASIERIDNVVERIEVLQDLQKNGETTLKNAPVERKSKKKMRKIDCEQKKKIATEWSKFKKWHTEGWE	not soluble
